Experimental findings from patent publication US20240092924A1 are described below.

The assay deals with wild-type human sodium taurocholate cotransporting polypeptide (human NTCP) (human) (UniProt Q14973). The experiment in a line: cell-based or functional assay.
wild-type human sodium taurocholate cotransporting polypeptide (human NTCP) (human), sequence (Q14973 whole entry): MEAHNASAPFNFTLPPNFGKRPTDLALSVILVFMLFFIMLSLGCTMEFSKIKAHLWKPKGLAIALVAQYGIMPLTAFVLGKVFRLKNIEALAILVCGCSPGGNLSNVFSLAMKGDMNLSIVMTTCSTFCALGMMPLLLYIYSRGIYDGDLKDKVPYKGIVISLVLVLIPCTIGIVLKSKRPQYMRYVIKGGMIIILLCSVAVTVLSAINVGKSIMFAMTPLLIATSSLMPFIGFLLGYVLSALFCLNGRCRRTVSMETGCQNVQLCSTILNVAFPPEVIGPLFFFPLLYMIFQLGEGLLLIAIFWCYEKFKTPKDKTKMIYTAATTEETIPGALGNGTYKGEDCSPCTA

preS1 peptide yielded a [3H]-taurocholic acid uptake by HepG2-human NTCP cells, at 1000 nM (fraction of uptake remaining) of 0.05; an inhibition of [3H]-taurocholic acid uptake by human NTCP-expressing HepG2, at 100 nM of 60%; an inhibition of [3H]-taurocholic acid uptake by human NTCP-expressing HepG2, at 1000 nM of 96%; a suppression of bile acid uptake into a hepatocyte cell line, at 1000 nM (FIG. 3 legend) of less than 90%.
